From US20180339041A1 (Kyowa Kirin, published 2018)

T1: C-terminally FLAG-tagged human Gas6 recombinant protein (hGas6-F) (human, UniProt Q14393 31-678, gamma-carboxylated glutamic acid residues in the Gla domain (producer cells co-express rat VKOR and human GGCX); positions not given)
T1 construct: also called human Gas6-F; human Gas6 protein
T1 sequence: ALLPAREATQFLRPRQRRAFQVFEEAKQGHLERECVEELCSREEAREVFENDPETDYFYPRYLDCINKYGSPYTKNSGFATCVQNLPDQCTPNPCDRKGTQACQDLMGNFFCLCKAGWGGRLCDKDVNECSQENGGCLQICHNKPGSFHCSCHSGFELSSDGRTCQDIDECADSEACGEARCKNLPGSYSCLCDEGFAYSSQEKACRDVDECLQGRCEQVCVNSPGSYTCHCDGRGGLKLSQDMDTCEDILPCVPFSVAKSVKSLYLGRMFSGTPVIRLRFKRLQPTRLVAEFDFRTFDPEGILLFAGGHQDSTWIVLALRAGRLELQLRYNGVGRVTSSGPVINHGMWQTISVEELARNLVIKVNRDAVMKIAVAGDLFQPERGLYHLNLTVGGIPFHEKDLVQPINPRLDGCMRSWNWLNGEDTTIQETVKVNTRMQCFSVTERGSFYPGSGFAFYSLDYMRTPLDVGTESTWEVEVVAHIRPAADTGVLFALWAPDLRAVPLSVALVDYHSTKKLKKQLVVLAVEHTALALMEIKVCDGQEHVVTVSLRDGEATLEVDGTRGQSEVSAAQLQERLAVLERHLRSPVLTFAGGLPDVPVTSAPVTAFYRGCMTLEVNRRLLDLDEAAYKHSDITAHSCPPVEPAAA

T2: human protein S (derived from human serum; Enzyme Research Laboratories) (human, UniProt P07225 42-676)
T2 construct: Homologue of Gas6 used as specificity control
T2 sequence (looked up): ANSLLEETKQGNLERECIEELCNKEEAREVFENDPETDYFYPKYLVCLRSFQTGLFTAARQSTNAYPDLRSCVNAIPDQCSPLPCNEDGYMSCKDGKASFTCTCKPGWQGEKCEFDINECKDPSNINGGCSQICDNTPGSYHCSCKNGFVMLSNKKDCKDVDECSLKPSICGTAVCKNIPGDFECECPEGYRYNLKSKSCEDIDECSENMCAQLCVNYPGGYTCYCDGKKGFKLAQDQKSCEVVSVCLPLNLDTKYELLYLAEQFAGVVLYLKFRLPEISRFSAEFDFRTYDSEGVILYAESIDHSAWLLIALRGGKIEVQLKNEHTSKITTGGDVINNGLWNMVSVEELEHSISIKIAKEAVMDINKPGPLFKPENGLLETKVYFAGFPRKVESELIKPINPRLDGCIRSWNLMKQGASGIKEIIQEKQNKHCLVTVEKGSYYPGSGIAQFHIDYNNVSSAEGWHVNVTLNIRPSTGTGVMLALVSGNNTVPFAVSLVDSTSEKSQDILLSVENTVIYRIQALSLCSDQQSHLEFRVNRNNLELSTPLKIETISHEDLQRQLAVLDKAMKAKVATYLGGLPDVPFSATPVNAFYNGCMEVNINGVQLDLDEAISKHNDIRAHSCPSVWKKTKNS

B1: anti-human Gas6 mouse monoclonal antibody KM5320 (KM5320-mKG1 antibody) (antibody, V domains shown)
VH: QIQLVQSGPELKKPGETVKISCKASGYTFTNYGMNWVKQAPGKGLKWMGWINTETGEPTYSDDFKGRFAFSLETSATTAYLQINNLRNEDMATYFCAREDGYYGTLDYWGQGTSVTVSS
VL: SIVMTQTPKFLLVSAGDRVTITCKASQSVSNDVAWYQQKPGQSPKVLIYYASNRYTGVPDRFTGSGYGTDFTFTISTVQAEDLAVYFCQQDYSSPWTFGGGTKLEIK
notes: Hybridoma-derived mouse IgG1, kappa; also called KM5320 antibody
B2: anti-human Gas6 mouse monoclonal antibody KM5321 (KM5321-mKG1 antibody) (antibody, V domains shown)
VH: QIQLVQSGPELKKPGETVKISCRASGYTFTNYGMNWVKQAPGKGLKWMGWINTNTGEPTYTEEFKGRFAFSLETSATTAYLQINDLKNEDTATYFCARDEGWFVYWGQGTLITVSA
VL: ETTVTQSPASLSVATGEKVTIRCITSTDIDDDMNWYQQKPGEPPKLLISEGNTLRPGVPSRFSSSGYGTDFVFTIENTLSEDVADYYCLQTDSVPLTFGAGTKLELK
notes: Hybridoma-derived mouse IgG1, kappa; also called KM5321 antibody

Columns and labels:
[1] = target: T1, C-terminally FLAG-tagged human Gas6 …; test: ELISA, Gas6-F captured by anti-FLAG, biotinylated antibody
Description: After removal of the immobilization solution, 1% BSA-PBS (manufactured by Nacalai Tesque, Inc.) was added thereto at 300 μL/well, and the plate was left standing at room temperature for 1 hour for blocking and washed five times with Tween 20-PBS (manufactured by Wako Pure Chemical Industries Ltd.).
Each antibody solution was dispensed thereto at 50 μL/well, and the plate was left standing at room temperature for 1 hour. This plate was washed five times with Tween 20-PBS. Then, Streptavidin HRP Conjugate (manufactured by R&D Systems, Inc.) diluted 200-fold with 1% BSA-PBS was dispensed thereto at 50 μL/well, and the plate was left standing at room temperature for 1 hour. This plate was washed five times with Tween 20-PBS, and TMB (manufactured by Sigma-Aldrich Co. LLC) was added thereto at 50 μL/well and reacted. At an appropriate point in time, the reaction was terminated by the addition of 1 N hydrochloric acid (manufactured by Wako Pure Chemical Industries Ltd.) at 50 μL/well. The absorbance at a sample wavelength of 450 nm and a reference wavelength of 570 nm (450 nm-570 nm) was measured using a plate reader.

[2] = target: T2, human protein S (derived from human …); test: ELISA: human protein S coated directly on the plate (2 µg/mL); biotinylated test antibody; streptavidin-HRP/TMB (Example 6, method of Example 5(5)) [F]
Description: First, a 2 μg/mL solution of the antigen (prepared from each antigen with PBS (manufactured by Nacalai Tesque, Inc.)) was dispensed at 50 μL/well to a 96-well plate for ELISA (manufactured by Nalge Nunc International), and the plate was left standing overnight at 4° C. for adsorption. The plate was washed five times with Tween 20-PBS. Then, 1% BSA-PBS (manufactured by Nacalai Tesque, Inc.) was added thereto at 300 μL/well, and the plate was left standing at room temperature for 1 hour for blocking and washed five times with Tween 20-PBS (manufactured by Wako Pure Chemical Industries Ltd.). Next, the hybridoma culture supernatant was dispensed thereto as a test substance at 50 μL/well, and the plate was left standing at room temperature for 1 hour and then washed five times with Tween 20-PBS. Next, polyclonal goat anti-mouse immunoglobulins/HRP (Dako Denmark A/S, P0447) diluted 2000-fold with 1% BSA-PBS was dispensed thereto at 50 μL/well, and the plate was left standing at room temperature for 1 hour. The plate was washed five times with Tween 20-PBS, and TMB (manufactured by Sigma-Aldrich Co. LLC) was added thereto at 50 μL/well and reacted. At an appropriate point in time, the reaction was terminated by the addition of 1 N hydrochloric acid (manufactured by Wako Pure Chemical Industries Ltd.) at 50 μL/well. The absorbance at a sample wavelength of 450 nm and a reference wavelength of 570 nm (450 nm-570 nm) was measured using a plate reader (Spectra Max, manufactured by Molecular Devices, LLC).
The binding activity of the obtained antibodies against human protein S was measured in the same way as in Example 5(5). […] The secondary detection reagent used was Streptavidin HRP Conjugate (manufactured by R&D Systems, Inc.) diluted 200-fold with 1% BSA-PBS.

Binder	antibody concentration at which binding activity was detected [1]	binding result [2]
B1	0.0003 µg/mL	no binding (tested: 5 µg/mL)
B2	0.0003 µg/mL	no binding (tested: 5 µg/mL)
